In PMC7599888:

Target: Sulfolobus solfataricus poly(ADP-ribose) polymerase-like thermoprotein (PARPSso) (S. solfataricus)
Assay: SDS-PAGE band shift with silver staining; PARPSso (3 ug, 65 pmol) mixed with Sso7 at 1:0.5, 1:1 and 1:3 mol/mol in 10 mM Na-phosphate/10 mM EDTA pH 7.5, 80 °C for 20 min (once at 45 °C); 5-12% gradient SDS-PAGE

Sequence of Sulfolobus solfataricus poly(ADP-ribose) polymerase-like thermoprotein (PARPSso) (S. solfataricus) (B3EWG9 whole entry): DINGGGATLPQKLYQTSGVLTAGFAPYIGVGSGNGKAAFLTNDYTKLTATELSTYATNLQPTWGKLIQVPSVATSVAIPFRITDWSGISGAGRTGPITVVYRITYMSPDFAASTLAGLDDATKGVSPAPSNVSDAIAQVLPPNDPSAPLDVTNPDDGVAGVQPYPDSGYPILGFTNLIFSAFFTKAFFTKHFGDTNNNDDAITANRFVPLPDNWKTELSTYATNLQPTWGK

stoichiometry N: 3
Substance: Sso7 protein (from UniProt P39476 1-64) (natural protein)
